Test [1] deals with AR transactivation. The note with it: PC-3 and CV1 cells; Hayes et al.; cited from earlier work.
Test [2] relates to wtAR, mtARt877a, PR, VDR, ER transactivation. Description: Steroid receptor transactivation with Smad3 in DU145 cells (wtAR, mtARt877a, PR, VDR, ER). Format: cell-based, human.
For test [3], the system named is AR transactivation. Nature of the test: AR transactivation reporter assays in SW480.7 / SW480·C7 cells. Format: cell-based. Particulars: for Effect on ARE reporter activity: SW480·C7 cells. Here is the method: (§1) 37. […] (A) PC3-AR2, SW480·C7, and PC-3 cells were transiently co-transfected with either MMTV-CAT, PSA-CAT, 5XARE-CAT, or (TAT)2-CAT (3 μg), in the presence of AR, Smad3, Smad4 or Smad3/Smad4 as indicated. Each CAT activity is presented relative to the transactivation observed in the absence of Smad3. All values represent the mean±SD of three independent experiments.
(A reporter such as luciferase makes a cellular process visible.)

For test [4], the system named is AR transactivation. Nature of the test: AR transactivation with Smad3/Smad4, CAT reporters in PC3-AR2, PC-3 and LNCaP cells. The format is cell-based, human. The protocol: 32. […] LNCaP cell were transfected with Smad3 or Smad4 expression vector instead of PC-3(AR)2 cells in experiments otherwise identical with those in A (B), PC-3(AR)2 cells stably transfected with AR were over-expressed with the indicated amounts of Smad3 or Smad4 or SRC-1. 3 μg of MMTV-CAT was used as a reporter plasmid in all experiments. All values represent the averages±SD of four independent experiments. […] PSA expression level was determined by Northern blotting. The probe was obtained from exon 1 of the PSA gene and labeled with [α-^32P] dCTP. A β-actin probe was used as a control for equivalent mRNA loading. (C, Table 1) The RNA samples from (A) were reverse transcribed to cDNAs and all of the samples were subjected to real-time CR using an ABI Prism 7700 Sequence Detection System (Perkin-Elmer Applied bio systems). PCR was performed using the SYBR Green PCR Core Reagents kit (Perkin-Elmer Applied Bio systems). PSA and β-actin forward, reverse primers concentrations were 2.5 μM. To reduce variability between replicates, PCR premixes which contained all reagents except for total RNA were prepared and aliquoted into 1.5 ml microfuge tubes. Specific PCR amplification products were detected by the fluorescent double-stranded DNA-binding dye SYBR Green core reagent kit. Experiments were performed with triplicates for each data point.
as §1
333. Human prostate cancer DU145 cells and PC-3 cells were maintained in Dulbecco's Minimum Essential Medium containing penicillin (25 U/ml), streptomycin (25 μg/ml), and 5% fetal calf serum. Transfections were performed using the calcium phosphate precipitation method and cells were harvested after 24 h for the chloramphenicol acetyltransferase (CAT) assay, as described previously (Kang, et al. (1999) J. Biol. Chem. 274, 8570-8576). The CAT activity was visualized and quantitated by STORM 840 (Molecular Dynamics). At least three independent experiments were carried out in each case. The SW480·C7 cells and PC-3(AR)2 cells are the gifts from Dr. Eric J. Stanbridge and Dr. T. J. Brown

In a further test the test system is PSA mRNA expression. Nature of the test: PSA mRNA expression in LNCaP cells, Northern blot. Format: cell-based.

“Also recorded” adds a separate entry of the source.

B1: Smad3: a downstream mediator of the TGF-β signaling pathway (protein)
chain: MSSILPFTPPIVKRLLGWKKGEQNGQEEKWCEKAVKSLVKKLKKTGQLDELEKAITTQNVNTKCITIPRSLDGRLQVSHRKGLPHVIYCRLWRWPDLHSHHELRAMELCEFAFNMKKDEVCVNPYHYQRVETPVLPPVLVPRHTEIPAEFPPLDDYSHSIPENTNFPAGIEPQSNIPETPPPGYLSEDGETSDHQMNHSMDAGSPNLSPNPMSPAHNNLDLQPVTYCEPAFWCSISYYELNQRVGETFHASQPSMTVDGFTDPSNSERFCLGLLSNVNRNAAVELTRRHIGRGVRLYYIGGEVFAECLSDSAIFVQSPNCNQRYGWHPATVCKIPPGCNLKIFNNQEFAALLAQSVNQGFEAVYQLTRMCTIRMSFVKGWGAEYRRQTVTSTPCWIELHLNGPLQWLDKVLTQMGSPSIRCSSVS
B1: the “Effect on AR transactivation” value in the test with AR transactivation [1] was “suppress AR transactivation”. Further, the “Enhancement of AR transactivation compared to ARA70” value in test [2] was “relatively stronger enhancement effect”. The “Enhancement of wtAR transactivation” value in test [2] (10 nM DHT) is given as 3-4 fold. The “Effect on transactivation of steroid receptors” value in test [2] (10^−8 M cognate ligand) was “significantly enhance the transactivation of AR, the progesterone receptor, and VDR”. Besides, the “Effect on ARE reporter activity” value with AR transactivation [3] (MMTV-ARE reporter) is “only enhance MMTV-ARE reporter activity”; with AR transactivation [3] (PSA-ARE, 5X-ARE and TAT2-ARE reporters), “some slight repression”. The “Effect on ligand-dependent transactivation of AR” value with AR transactivation [3] (SW480.7 cells, MMTV-CAT) is “increased the ligand-dependent transactivation of AR”. Besides, in the test with AR transactivation [4] (PC3-AR2, MMTV-CAT, 10^−8 M DHT), the “Effect on androgen-activated AR transactivation” value is “further enhanced”. Besides, the “Effect on ARE reporters (MMTV, PSA, 5X-ARE, TAT2-ARE)” value in the test with AR transactivation [4] (PC-3 cells) is “enhance all these reporters”. The “Effect on PSA expression” value with PSA mRNA expression (absence of androgen) was “failed to induce PSA expression”. The “Effect on androgen-induced PSA mRNA expression” value with PSA mRNA expression (presence of androgen) was “further enhance PSA expression; also recorded: further enhances DHT-induced PSA mRNA expression”.
